From PMC12489045, “Non-coding RNA mediates the defense-associated reverse transcriptase (DRT) anti-phage oligomerization transition” (The EMBO Journal, 2025) come the findings set out here.

Assay [1] addresses DRT9 reverse transcriptase (DRT9-RT protein), wild type, in complex with its ncRNA (Escherichia coli). The experiment in a line: cryo-EM structure; DRT9 RT-ncRNA complex (2 mg/ml) with 1 mM of each dNTP, 25 mM Tris-HCl pH 7.5, 150 mM NaCl, 5 mM MgCl2, room temperature 1 h; 3.46 Å.
The target is the same in assay [2]. The experiment in a line: cryo-EM structure; DRT9 RT-ncRNA complex without dNTPs, 2 mg/ml; 3.49 Å.

Usually stoichiometry N stands for the number of molecules, sites or subunits per partner or assembly. As for “DRT9 reverse transcriptase (DRT9-RT protein), wild type, in complex with its ncRNA (enzyme)”, in assay [1], the stoichiometry N amounted to 6. Also, in assay [2], the fraction of particles that are hexamers (without dNTPs) is 13% and the stoichiometry N was 4.
